Data from the nanobody polyreactivity screen of Harvey et al. (2022).

assay: yeast display, Sf9 membrane polyspecificity reagent, FACS + sequencing; frameworks hold sequencing errors
Method in brief: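 Nanobodies from a synthetic yeast display library (Saccharomyces cerevisiae BJ5465), induced 36–48 hours with galactose, were stained 1 hour at 4 °C with 10% biotinylated, detergent-solubilized Sf9 membrane reagent, enriched on streptavidin microbeads, then FACS-sorted. Anti-HA (expression) and streptavidin (reagent binding) fluorescence set low and high (top ~1%) gates. Polyreactivity labels come from the gate of origin. Genes were colony-PCR amplified, MiSeq 2 × 250 sequenced and filtered by CDR length.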

Row | Sequence | polyreactivity (PSR sort gate)
1 | QVQLVESGGGLVQAGGSLSLSCAASGRTFKYYTMGWYRQAPGKERELVAAISASGGSTYYADSVKGRFTISRDNAKNTVYLQMNSLKPEDTAVYYCAKGANRAIHKQPTRSRLDSWGQGTQVTVSS | high polyreactivity
2 | QVQLVESGGGLVQAGGSLRLSCAASGSTFAVNAMGWYRQAPGKERELVAAITGSGGSTYYADSVKGRFTISRDNAKNTVYLQMNSLKPEDTAVYYCAAYRRYGYYYWGQGTQVTVSS | low polyreactivity
3 | QVQLVESGGGLVQAGGSLRLSCAASGRTFYNYAMGWYRQAPGKEREFVAAITFRTSSTYYADSVKGRFTISRDNAKNTVYLQMNSLKQEDTAVYYCNADRYWGYDYWGQGTQVTVSS | high polyreactivity
4 | QVQLVESGGGLVQAGGSLRLSCAASGIIFYGNTLGWYRQAPGKERELVAGIDFSDDSTNYADSVKGRFTISRDNAKNSVYLLRNSLKPEDTAVYYCAADTRSPSAQEVDYWGQGTQVTVSS | low polyreactivity
5 | QVQLVESGGGLVQAGCSLRLSCAASGSIFDSKAMGWYRQAPGKERELVAAISSSGARTYYADSVKGRFTISRDNAKNTVYLQMNSLKPEDTAVYYCAAKPGYKSKMDYWGQGTQVTVSS | high polyreactivity
6 | QVQLVESGGGLVQAGGSLRLSCAASGSIFPVYAMGWYRQAPGKERELVAAISWGGGNTYYADSVKGRFTISRDNSKNTVYLQMNSLKPEDTAVYYCNKRSRLGRGNRDYRGQGTQVTVSS | high polyreactivity
7 | QVQLVESGGGLVQAGGSLRLSCADSGSIFRYNAMGWSRQAPGKERELVAAISGSGGSTYYADSVKGRFTISRDNAKNTVYLQRNSLKPEDTAVYYCNTRVYHYHYSYYPGGYWGQGTQVTVSS | high polyreactivity
8 | QVQLVESGGGLVQAGGSIRLSCAASGSIYPFYSMGWYRQATGKEMELVAAISDSGGDTYYADSVKGRFTISRDNAKNTVYLQMNSLKPEDTAVYYCAADWFYNSFNYWGQGTQVTVSS | low polyreactivity
9 | QVQLVESGGGLVQAGGSLRLSCAASGSIFASNTMGWSRQATGKERELVAGITKIGSSTYYADSVKGRFTISRDNAKNTVYLQMNSLKPEDTEVYYCNAYGPNIYSSRYDYWGQGTQVTVSS | low polyreactivity
10 | QVQLVESGGGLVQAGGSLRLSCAASGSTFGLNAMGWYRQAPGKERELVAAITRSDITNYADSVKGRFTISRDNAKNTVYLQMNSLKPEDTAVYYCNKTPDRHRRYFGYGYWGHGTQVTVSS | low polyreactivity
11 | QVQLVESGGGLVQAGGSLRLSCAASGRTFKYYGMGWYRQAPGKERELVATISRSSSRTYYADSVKGRFTISRDNAKNTVYLQMNSLKPEDTAFYYCATLGPRSYAYDYWGQGTQVTVSS | high polyreactivity
12 | QVQLVESGGGLVQAGGTLRLRCAASGSTFFPYAIGWYRPAPGKEWELVAAITSGGRTHYADSVKGRFTISRDNAKNTVYLQMMSLIPEDSAVYYCAAVVPRHLLTYRMDYWGQGNQVTVSS | high polyreactivity
13 | QVQLVESGGGLVQAGGSLRLSCAASGSIFYTNDMGWYRQAPGKERELVAAIRYSGVSTYYADSVKGRFTISRDNAKNTVYLQMNSLKPEDTAVYYCATTAYGYRSYSQSQQDMEYWGQGTQVTVSS | high polyreactivity
14 | QVQLVESGGGLVQAGGSLRLSCAASGRTFAGYAMGWYRHAPGKETELVAAITTSGGRTYYADSVKGRFTISRDYAKNTVYLQMNSLKPEDTAVYYCNVASKGRYARYAAEYGYWGQGTQVTVSS | high polyreactivity
15 | QVQLVESGGGLVQAGGSLRLSCAASGRTFTVNRMGWYRQAPGKERELVAGITLRGANTYYADSVKGRFTISRDNAKNTVYLQMNSLKPEDTAVYYCNDDVKYRYNHWGQGTQVTVSS | high polyreactivity
16 | QVQLVESGGGLVQAGGSLRLSCAASGRIFSGYAMGWYRQAPGKERELVAAITSRSGSTYYADSVKGRFTISRDNAKNTVYFQMNSLKPEDTAVYYCAAEYVRFYWYTSDYWGQGTQVTVSS | low polyreactivity
17 | QVQLVESGGGLFQAVGSLRLSCAASGFIFYDYAMGWYRQAPGKEMELVAAISKRGGSTYYADSVKGRFTISRDNAKNTVYLQMNSLKPEDTADYYCAAALWGWRYYYWGQGTQVTVSS | high polyreactivity
18 | QVQLVESGGGLVQAGGSLRLSCADSGFIFAYYVMGWYRQAPGKERELVAAISRGGGSTYYADSVKGRFTISRDNAKYTVYLQMNSLKPEDTAVYYCATYSHALRYDYWGQGTQVTVSS | high polyreactivity
19 | QVQLVESGGGLVQAGGSLRLICAASGSTFELYAMGWYRQAPGKEREFVAAITYDSTYYADSVKGRFTISRDNAKNTVYLQMNSLKPEDTAVYYCAAAYWHYYYGWDMYYWGQGTQVTVSS | high polyreactivity
20 | QVQLVESGGGLVQAGGSLRLSCAASAFIFSGNAMGWNRQAPGKERELVAAISGRGGRTYYADSVKGRFTISRDNAKNTVYLQMNSLKPEDTAVYYCAADNPYLGRKFDYWGQGTQVTVSS | high polyreactivity
21 | QVQLVESGGGLVQAGGSLRLSCAASGLTFYYYTMGWYRQAPGKERELVAAIDNGGGTNYADSVKGRFTISRDNAKNTVYLQMNSLKPEDTAVYYCAADRSYYIIIGYDLFAYYYWGQGTQVTVSS | low polyreactivity
22 | QVQLVESGGGLVQAGGSLRLSCAASGYIFLRNAMAWYTKAPGKERELVAAIRRTGGSTYYADSVKGRFTISRDNAKNTVYLQMNSLKPEDTAVYYCAKRSYTGYEYWGQGTQVTVSS | low polyreactivity

Row | Sequence | polyreactivity (PSR sort gate)
23 | QVQLVESGGGLVQAGGSLRLSCAASGFTFPENAMGWYRQAPGKERELVAAISYRGASTFYADSVKGRFTISRDNAKNTVYLQLISLKPEDTAVYYCATDPRIRYQGNPYDYWGQGTQVTVSS | high polyreactivity
24 | QVQLVDSGGGLVQAGASLRLSCAASGIIFTGYAKGWYRQAPGKERDLVAAISGIGTSTYYADSVKGRFTISRDNAKNTVYLQMNSLKPEDTAVYYCAARYVSRRFLGYYYWGQGTQVTVSS | high polyreactivity
25 | QVQLVESGGGLDAAGGSLRLSCAASGSTVIAYAMGWYRQAPGKEWELVAVMTSRGGRTYYADSVKGRFTISRDNAKNTVYLQMNSQKPEDTAVYYCATRSYRYLRSYDYWGQGTQVTVSS | high polyreactivity
26 | QVQLVESGGGLVQAGGSLRLSCAASGRTFWYNAMGWYRQAPGKERELVAAITSSGGSTYYADSVKGRFTISRDNAKNTVYLQMNSLKPEDTAVYYCNKRPGPYKWPPRHDYWGQGTQVTVSS | low polyreactivity
27 | QVQLVESGGGLVQAGGSLRLSCAASGSTLDIYAMGWYRQAPGKERELVATINSTGGSTYYADSVKGRFTISRDNAKNTVYLQMNSLNPEDTAVYYCAADFGLFGPTTGYIRPYDYWGQGTQVTVSS | low polyreactivity
28 | QVQLVESGGGLDQAGGSLRLSCAASGLTFATYAMGWYRQAPGKERELVAAINGRGASTNYADSVKGRFTISRDNAKNTVYLKMNSLKPEDTAVYYCASRLYRRNKYVLFDYWGQGTQVTVSS | high polyreactivity
29 | QVQLVESGGGLVQAGGSLRLSCAASGLTFSKYAMGWYRQAPGKERELVAAITRGDRTYYSDSVRGRFTISRDNAKNTVYLQMNRLKPEDTAVYYCAARQYYWGQGTQVTVSS | high polyreactivity
30 | QDQLVESGGGLVQAGGSLRLSCADSGITFSVYAMGWYRQAPGKERELVAAISWNGGRTYYADSVKGRFTISRDNAKNTVYLQMNSLKPEDTAVYYCAAQPWIFSSRLVWTRGYGYWGQGTQVTVSS | high polyreactivity
31 | QVQLVESGGGLVQAGGSLRLSCAASGSIFPYAMGWYRQAPGKERELVAVISWSGASTYYADSVKGRFTISRDNAKNTVYLQMNSLKPEDTAVYYCAVYRYYKLVHLYGYDYWGQGTQVTVSS | high polyreactivity
32 | QVQLVESGGGLVQAGGSLRLSCAASGLIFSYNAMGWYRQAPGKERELVAAISYSGGSTYYADSVKGRFTISRDNAKNTVYLQMNSLKPEDTAVYYCAAVLSPDFYYWGQGTQVTVSS | high polyreactivity
33 | QVQLVESGGGLVQAGGSLRLSCAASGFIFWFNALGWYRQAPGKERELVATISWSDTSTYYADSVKGRFTISRDNAKNTVYLQMNSLKPEDTAVYYCATDGRETWLPEYYWGQGTQVTVSS | low polyreactivity
34 | QVQLVESGGGLVQAGGSLRLSCAASGRIFRGYAMGWYRQAPGKERELVATISAIGGSTYADSVKGRFTISRHNAKNTVYLQMNSLKPEDTAVYYCNVRKVYRYQYRFEYWGQGTQVTVSS | high polyreactivity
35 | QVQLVESGGGLVQAGGSLRLSCAASGFTFAKNAMGWYRQAPGKERELVATISRSGGSTYYADSVKGRFTISRDNAKNTVYLQMNSLKPEDTAVYYCAADRSYGVLGNEGGYWGQGTQVTVSS | high polyreactivity
36 | QVQLVESGGGLVQEGGSLRLICAASGRIFAGYAMGWYSQAPGKERELVAAISQDGGSTYYADSVKGRFTISRDNAKNTVYLQMNSLKPEDTAVYYCAAEDPDSWLPWDLFDYWGQGTQVTVSS | low polyreactivity
37 | QVQLVESGGGLVHAGGSLRLSCAASGSILSSYAMGWYRQAPGKERELVAAINSGGSTNYADSVKGRFTISRDNAKNTVYLQMNSLKAEDTAVYYCNADYSYGTTLDYWGQGTHVTVSS | low polyreactivity
38 | QVQLVESGVGIVQAGGILRLSCAASGSIFFFYAMGWYRQAPAKERELVAAITSSDGDTYYADSVKGRFTISRDNAKNTVYLEMNSLKPEDTAVYYCAVRSSWYEGDYWGQGTQVTVSS | low polyreactivity
39 | QVQLVESGGGLVQAGGSLRLSCAASGRIFGVYVMGWYRQAPGKERELVAAISWSGSHTYYADSVKGRFTISRDNAKNTVYLQMNSLKPEDTAVYYCNADSYPDYTGPGLDWYDYWGQGTQVTVSS | low polyreactivity
40 | QVQLVESGGGLLQAGGSLRLSCAASGRTFPYYAMGWYRQAPGKERELVAAISSSGGSTYYADSVKGRFTISRDNAKNTVYLEMNSLKPEDTEVYYCAAVYQFIKWGDSYEYWGQGTQVTVSS | high polyreactivity
41 | QVQLVESGGRLVQAGGSLRLSCAASGSTITPNSMGWYRQAPGKERELVAAITTGGSTKYADSVKGRFTISRDNAKKTVYLQLTSLNPADTAVYYCNTDRGAYFYVIWPPWTYDWGQGTQVTVTS | low polyreactivity
42 | QVQLVESGGGLVQAGGSLRLSCAASGRIFTFYAMGWYRQAPGKERELVATIRNGGSTNYADSVKGRFTISRDNAKNTVYLQMNSLKPEDTAVYYCNTYYYGRRRYGYWGQGTQVTVSS | high polyreactivity
43 | QVQLVESGGGLVQAGGSLRLSCAASGRIFGPYTMGWYRQAPGKERELVAAISWSGGSTYYADSVKGRFTISRDNAKNTVYLQMNSLKPEDTAVYYCNADHPFPQYEGGSWGQGTQVTVSS | low polyreactivity
